T1: human FGFR4 (recombinant, construct not stated; SPR, FGFR4 ELISA, receptor-binding assay) (human, UniProt P22455 22-369, limits assumed)
T1 construct: Whole exemplary entry named
T1 sequence: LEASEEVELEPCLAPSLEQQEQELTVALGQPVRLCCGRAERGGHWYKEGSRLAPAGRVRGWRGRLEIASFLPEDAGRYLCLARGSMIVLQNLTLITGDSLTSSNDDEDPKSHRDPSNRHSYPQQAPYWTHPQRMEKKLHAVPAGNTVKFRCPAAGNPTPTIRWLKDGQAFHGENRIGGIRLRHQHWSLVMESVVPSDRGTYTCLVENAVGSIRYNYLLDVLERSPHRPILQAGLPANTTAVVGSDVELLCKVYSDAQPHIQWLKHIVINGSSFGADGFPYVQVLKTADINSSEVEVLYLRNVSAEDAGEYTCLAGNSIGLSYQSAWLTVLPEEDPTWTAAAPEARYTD


What was measured:
[1] = target: T2, cynomolgus monkey FGFR4 (SPR of FIG. 2B, construct not stated) (cynomolgus monkey); test: surface plasmon resonance (table row 'Cynomolgus', column 'Kd (nM)')
T2 construct: also called cynomolgus FGFR4

[2] = target: human FGFR4-FGFR1 chimeric construct on BaF3 cells (human, UniProt P11362 398-820, limits assumed); test: cell-based or functional assay
[3] = target: T3, cynomolgus FGFR4-Fc chimeric protein (cynomolgus monkey); test: solid phase binding assay, LD1 on immobilized cFGFR4-Fc, OD 450 nm
T3 construct: also called cFGFR4

[4] = target: T4, mouse complement C3 (ca. 37 kDa fragment, C3d, from mouse plasma) (mouse, UniProt P01027 1002-1303, limits assumed); test: immunoprecipitation from NCR nude mouse plasma, SDS-PAGE
T4 construct: Native protein of plasma/serum, pulled down as a ca. 37 kDa band; also called mouse C3; mouse C3d

[5] = target: T1, human FGFR4 (recombinant, construct not …); test: FGFR4 ELISA (immobilized FGFR4), O.D. 450 nm against IgG concentration
[6] = target: T1, human FGFR4 (recombinant, construct not …); test: surface plasmon resonance, compared with chLD1
Protocol: (§1) Affinity determinations were performed by surface plasmon resonance using a BIAcore™-2000. Approximately 50 RU of hLD1.vB IgG was immobilized in 10 mM Sodium Acetate pH 4.8 on a CM5 sensor chip and serial 2-fold dilutions of the FGFR4 (0.48-1000 nM) in PBST were injected at a flow rate of 30 μl/min. Each sample was analyzed with 4-minute association and 10-minute dissociation. After each injection the chip was regenerated using 10 mM glycine pH 1.7. Binding response was corrected by subtracting the RU from a flow cell with an irrelevant IgG immobilized at similar density. A 1:1 Languir model of simultaneous fitting of kon and koff was used for kinetics analysis.
As a first step in the humanization of LD1, the variable light and heavy domains of chLD1 were aligned with the human kappa I (huKI) and human VH subgroup III (huIII) variable domain frameworks used in trastuzumab (FIG. 10). Hypervariable regions from chLD1 were grafted into these human variable frameworks to generate a direct CDR-graft (hLD1.vA)^{15, 16}. […] Substitution of mouse sequence at various vernier positions in both the variable light and heavy domains was explored as a means to improve binding and led to the identification of three important mouse vernier positions in the LC: P44F, L46I and Y49S.

[7] = target: T1, human FGFR4 (recombinant, construct not …); test: SPR (BIAcore-2000), antibody immobilized, human FGFR4 as analyte
Protocol: as §1
TABLE 3 Binding Kinetics of anti-FGFR4 antibody variants. The association and dissociation rates of human FGFR4 binding to immobilized antibody variants were measured using surface plasmon resonance.

T4 sequence (P01027 1002-1303 limits assumed): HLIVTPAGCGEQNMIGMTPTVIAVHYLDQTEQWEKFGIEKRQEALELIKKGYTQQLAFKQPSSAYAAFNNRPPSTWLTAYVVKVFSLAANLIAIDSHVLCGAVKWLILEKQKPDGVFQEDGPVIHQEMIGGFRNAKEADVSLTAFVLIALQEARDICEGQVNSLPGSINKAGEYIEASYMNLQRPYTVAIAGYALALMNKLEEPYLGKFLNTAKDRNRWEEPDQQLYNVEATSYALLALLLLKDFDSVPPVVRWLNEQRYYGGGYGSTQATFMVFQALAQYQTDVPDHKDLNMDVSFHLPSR

Row | Binder | Kd [1] [nM] | IC50 of inhibition of proliferation of BaF3/FGFR4/R1 cells in the presence of 5 nM FGF1 [2] [nM] | EC50 (read off the curve) [3] [mg/L] | binding result [4] | EC50 (read off the curve) [5] [mg/L] | fold weaker binding against chLD1 [6] [fold] | Kd [7] [nM] | koff [7] [s⁻¹]
1 | chimeric LD1 (murine LD1 variable domains with human kappa and human IgG1 constant domains) (antibody, V domains shown, also called chLD1; ChLD1) VH: EVQLQQPGAVLVRPGTSVKLSCKASGYTFTNHWMNWVKQRPGQGLEWIGMIHPSDSETTLDQKFKDKATLTVDKSSSTAYMQLNRPTSEDSAVYYCTRGDISLFDYWGQGTTVTVSS VL: DIQMTQTTSSLSASLGDRVTITCRTSQDISNFLNWYQQKPDGTFKILISYTSRLHSGVPSRFSGSGSGTDYSLTISTLEQEDFATYFCQQGNALPYTFGGGTKLEIE | 0.8 | 17.4 | ~0.04 | no binding | – | – | – | –
2 | hLD1.vB (humanized LD1 with light chain P44F, L46I, Y49S) (antibody, V domains shown) VH: EVQLVESGGGLVQPGGSLRLSCAASGYTFTNHWMNWVRQAPGKGLEWVGMIHPSDSETTLDQKFKDRFTISADTSKNTAYLQMNSLRAEDTAVYYCTRGDISLFDYWGQGTLVTVSS VL: DIQMTQSPSSLSASVGDRVTITCRTSQDISNFLNWYQQKPGKAFKILISYTSRLHSGVPSRFSGSGSGTDFTLTISSLQPEDFATYYCQQGNALPYTFGQGTKVEIK | – | – | – | – | ~4 | ~2 | 0.97 | 0.00028
3 | hLD1.v22 (humanized and affinity matured LD1) (antibody, V domains shown) VH: EVQLVESGGGLVQPGGSLRLSCAASGYTFTNHWMNWVRQAPGKGLEWVGMILPVDSETTLEQKFKDRFTISADTSKNTAYLQMNSLRAEDTAVYYCTRGDISLFDYWGQGTLVTVSS VL: DIQMTQSPSSLSASVGDRVTITCRTSQDISNFLNWYQQKPGKAFKILISYTSRLHSGVPSRFSGSGSGTDFTLTISSLQPEDFATYYCQQGNALPYTFGQGTKVEIKR | – | – | – | no binding | – | – | 0.043 | 3.9e-05

— patent publication US20140037624A1 (Genentech, published 2014)
